This passage reports Kd and ΔH results from patent publication US20220127585A1.

T1: B-Raf kinase, P15056
T1 chain: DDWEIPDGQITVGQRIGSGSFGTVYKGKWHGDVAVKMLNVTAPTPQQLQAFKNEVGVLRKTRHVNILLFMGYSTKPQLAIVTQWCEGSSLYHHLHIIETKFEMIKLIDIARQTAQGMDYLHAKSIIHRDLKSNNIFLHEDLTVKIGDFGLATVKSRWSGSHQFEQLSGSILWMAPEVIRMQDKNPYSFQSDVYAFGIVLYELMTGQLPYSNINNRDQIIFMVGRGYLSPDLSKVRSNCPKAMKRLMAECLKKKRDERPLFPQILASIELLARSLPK

B1: SEQ ID NO: 5 (503-521 R506E, …) (peptide)
peptide: GVLEKTRHVNILLFMGYST
modifications: not checked
B2: SEQ ID NO: 3 (scrambled, …) (peptide)
peptide: GRINKGRHTFLLVVMTYSL
modifications: not checked
B3: SEQ ID NO: 31 (…) (peptide)
peptide: LRKTRHVNILLFMG
modifications: not checked
B4: SEQ ID NO: 21 (504-518 L505A, …) (peptide)
peptide: VARKTRHVNILLFMG
modifications: not checked
B5: SEQ ID NO: 32 (505-518 R506L, …) (peptide)
peptide: LLKTRHVNILLFMG
modifications: not checked
B6: SEQ ID NO: 4 (503-521 L505A, …) (peptide)
peptide: GVARKTRHVNILLFMGYST
modifications: not checked
B7: SEQ ID NO: 15 (503-518, …) (peptide)
peptide: GVLRKTRHVNILLFMG
modifications: not checked
B8: SEQ ID NO: 11 (503-521 L514A, …) (peptide)
peptide: GVLRKTRHVNIALFMGYST
modifications: not checked
B9: SEQ ID NO: 29 (504-518 F516A, …) (peptide)
peptide: VLRKTRHVNILLAMG
modifications: not checked
B10: SEQ ID NO: 27 (504-518 I513A, …) (peptide)
peptide: VLRKTRHVNALLFMG
modifications: not checked
B11: SEQ ID NO: 22 (504-518 R506A, …) (peptide)
peptide: VLAKTRHVNILLFMG
modifications: not checked
B12: SEQ ID NO: 24 (504-518 R509A, …) (peptide)
peptide: VLRKTAHVNILLFMG
modifications: not checked
B13: SEQ ID NO: 25 (504-518 H510A, …) (peptide)
peptide: VLRKTRAVNILLFMG
modifications: not checked
B14: SEQ ID NO: 10 (503-521 V511A, …) (peptide)
peptide: GVLRKTRHANILLFMGYST
modifications: not checked
B15: SEQ ID NO: 37 (cyclo 508-513 T508K, I513E, …) (peptide)
peptide: LRKKRHVNELLFMG
modifications: not checked
B16: SEQ ID NO: 12 (503-521 L515I, …) (peptide)
peptide: GVLRKTRHVNILIFMGYST
modifications: not checked
B17: SEQ ID NO: 7 (503-521 T508D, …) (peptide)
peptide: GVLRKDRHVNILLFMGYST
modifications: not checked
B18: SEQ ID NO: 30 (504-518 M517A, …) (peptide)
peptide: VLRKTRHVNILLFAG
modifications: not checked
B19: SEQ ID NO: 28 (504-518 L514A, …) (peptide)
peptide: VLRKTRHVNIALFMG
modifications: not checked
B20: SEQ ID NO: 33 (…) (peptide)
peptide: VCRKTRHVNILLCM
modifications: not checked
B21: SEQ ID NO: 54 (VDab…) (peptide)
peptide: V[Dab]RKKRHVNELLDMG
B22: SEQ ID NO: 53 (…) (peptide)
peptide: VLRKKRHVNELLFMG
modifications: not checked
B23: SEQ ID NO: 16 (…) (peptide)
peptide: VLRKTRHVNILLFM
modifications: not checked
B24: SEQ ID NO: 6 (peptide)
peptide: GVLLKTRHVNILLFMGYST
modifications: not checked
B25: SEQ ID NO: 1 (B-Raf residues 503-521, …) (peptide)
peptide: GVLRKTRHVNILLFMGYST
modifications: not checked
B26: SEQ ID NO: 47 (…) (peptide)
peptide: KRHVAELLFMG
modifications: not checked
B27: SEQ ID NO: 61 (…) (peptide)
peptide: KRHPAELLFMG
modifications: not checked
B28: SEQ ID NO: 60 (VLRKKMe…) (peptide)
peptide: VLRKKRHVAELLFMG
modifications: not checked
B29: SEQ ID NO: 58 (VLRKO…) (peptide)
peptide: VLRK[code O]RHVAELIFMG
modifications: reading uncertain
B30: SEQ ID NO: 45 (…) with N-Cap N1 (peptide)
peptide: TRHVNILLFMG
modifications: not checked
B31: SEQ ID NO: 45 (…) with N-Cap N2 (peptide)
peptide: TRHVNILLFMG
modifications: not checked
B32: SEQ ID NO: 8 (peptide)
peptide: GVLRKARHVNILLFMGYST
modifications: not checked

Where no end group is shown, it is not given here. [ ]: non-standard residue; d: D form. code O = not defined here; Dab = NCC[C@H](N)C(=O)O

For one test, the target named is T1, B-Raf kinase, P15056. Nature of the test: intrinsic fluorescence titration (ITF) of B-Raf in solution.
Usually Kd stands for the constant that tells how readily two partners part at equilibrium. Higher therefore signals a looser complex. In turn, B1 displayed a Kd of 1090 nM. That is a single-digit micromolar value. For B2, the Kd is 2960 nM. In turn, B3 returned a Kd of 190 nM. This Kd is about 16-fold lower than that of the molecule before.

With B4, the Kd came to 450 nM. Regarding B5, the Kd was determined as 550 nM. On to B6, for which the Kd was 3890 nM.

B7: the Kd came out at 1880 nM. Molecule B8 registered a Kd of 9800 nM. This Kd is about 5.2-fold higher than that of the molecule before. The molecule B9 came in with a dissociation constant Kd of 570 nM. The molecule B10 yielded a Kd of 2690 nM. B11 returned a Kd of 360 nM. Take B12: the Kd turned out to be 2400 nM. This Kd lies about 6.7-fold higher than the previous one. As for B13, the Kd amounted to 2700 nM. In turn, B14 showed a Kd of 4750 nM. Molecule B15 yielded a Kd of 1890 nM. This Kd is about 2.5-fold lower than that of the molecule before. On to B16, for which the Kd was found to be 4100 nM.

Molecule B17 came in with a Kd of 2200 nM. The same measure, in the same setting: next, B18: 540 nM; B19: 1020 nM.

The target in a further test is T1, B-Raf kinase, P15056. The test can be described thus: binding affinity with BRAF, Table 2 (method not given; the Methods describe fluorescence titration).
For B20, the Kd came out at 360 nM. This counts as sub-micromolar. Take B21: the Kd came out at 370 nM. This Kd and that of the molecule before are within 1.5-fold of each other. In the case of B22, the Kd came to 1890 nM. Consider B23, for which the Kd turned out to be 5750 nM. Against the preceding molecule, the Kd is about 3-fold higher.

A further test concerns the target T1, B-Raf kinase, P15056. The test can be described thus: Kd for the B-Raf dimer interface (FIG. 1), fluorescence titration.
As to B24, the Kd came out at 540 nM. In turn, B25 gave a Kd of 3840 nM. Compared with the last molecule, the Kd is about 7.1-fold higher.

In a further test the target is T1, B-Raf kinase, P15056. Nature of the test: binding affinity, Table 3 (method not given; the Methods describe fluorescence titration).
Turning to B26, the Kd amounted to 590 nM.

With B3, the Kd turned out to be 1880 nM. This Kd is about 3.2-fold higher than that of the molecule before. B27 returned a Kd of 160 nM. This Kd lies about 12-fold lower than the previous one.

In the case of B28, the Kd was 39 nM. The molecule B22 yielded an equilibrium dissociation constant (Kd) of 1890 nM. On to B29, for which the equilibrium dissociation constant (Kd) was 170 nM. Compared with the last molecule, the Kd is about 11-fold lower.

The target of another test is T1, B-Raf kinase, P15056. The test can be described thus: intrinsic tryptophan fluorescence (ITF), column head 'Kd (ITF) (µM)'.
In turn, B30 registered a Kd of 50 nM.

For the molecule B31, the Kd is 84 nM.

A further test has as its target T1, B-Raf kinase, P15056. The test can be described thus: ITC. Background: In ITC the heat of successive injections is recorded.
In turn, B32 returned a ΔH of -8.32 kcal/mol.
